From patent publication US20130337579, “Methods for Determining Protein Ligand Binding” (UNIVERSITY OF MARYLAND, COLLEGE PARK, published 2013)

Tests used:
[1] = target: CRP (catabolite activator protein, cAMP receptor protein) (Escherichia coli, UniProt P0ACJ8 P0ACJ8:2-210); assay: DRaCALA; 100 nM CRP, 4 nM probe, 200 uM cAMP; conditions: tags: His-CRP expressed from pBAD-CRP, Ni-NTA and anion exchange; chain copies: 2; label: 5'-32P
[2] = target: MBP (maltose binding protein) (UniProt P0AEX9 P0AEX9:27-396); assay: DRaCALA; 100 nM MBP, 4 nM probe, 200 uM cAMP

Chain of CRP (catabolite activator protein, cAMP receptor protein) (P0ACJ8 2-210, one chain of several): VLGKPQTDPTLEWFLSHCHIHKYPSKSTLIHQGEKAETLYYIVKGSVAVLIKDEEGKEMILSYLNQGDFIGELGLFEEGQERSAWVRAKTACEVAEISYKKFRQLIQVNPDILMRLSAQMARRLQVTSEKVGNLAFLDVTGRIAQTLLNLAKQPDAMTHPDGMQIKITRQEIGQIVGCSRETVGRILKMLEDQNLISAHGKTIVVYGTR

Binder	binding result [1]	binding result [2]
10:G-C oligo duplex (gd130/gd131) (dsDNA) DNA 1: AGGAGGAATAAATGTCATCTAGATGACATTTTAGAGGAGG DNA 2: CCTCCTCTAAAATGTCATCTAGATGACATTTATTCCTCCT	no binding	
8,10:G-C oligo duplex (gd132/gd133) (dsDNA) DNA 1: AGGAGGAATAAATCTCATCTAGATGAGATTTTAGAGGAGG DNA 2: CCTCCTCTAAAATCTCATCTAGATGAGATTTATTCCTCCT	no binding	
ICAP oligo duplex (gd126/gd127) (dsDNA) DNA 1: AGGAGGAATAAATGTGATCTAGATCACATTTTAGAGGAGG DNA 2: CCTCCTCTAAAATGTGATCTAGATCACATTTATTCCTCCT		no binding
